The results in this text go back to US20110135573A1 (DYAX, published 2011).

Broadly, the koff is the first-order rate constant of dissociation. As usually defined, the kon is a measure of how fast the partners come together. Low values mean slower complex formation, high ones faster complex formation.

One test has as its target T1, h-MMP-9/h-TIMP-1 complex (human, UniProt P14780 107-457; P01033 24-207, limits assumed).
T1 construct: Preformed non-covalent complex flowed over the antibody surfaces; also called huTIMP-1/cat-huMMP-9; h-TIMP-1/h-MMP-9 complex
Description: SPR (Biacore 3000), antibody captured via anti-Fc. As for the experimental part: Experiments were performed at 25° C. with the help of a Biacore 3000 instrument. The MMP-9 binding protein (M0166F10) and the M0237-D02 antibody were coated to a CM5 chip either via standard amine coupling or using an anti-Fc antibody surface. Then either the active, human MMP-9 catalytic domain (BIOMOL, SE-244), the human pro-MMP-9 (R&D, 911-MP), the human TIMP-1 (R&D, 970-TM) or a h-MMP-9/h-TIMP-1 complex were flowed over the antibody surfaces, and binding was recorded.
It was shown that the human MMP-9 catalytic domain binds to M0166-F10, whether this antibody is directly captured via amine coupling or captured with an anti-Fc antibody surface.

The target of test [1] is T2, Human MMP-9 catalytic domain (BIOMOL, SE-244) (human, UniProt P14780 107-457, limits assumed).
T2 construct: domain: catalytic domain; also called Cat-huMMP-9; cat-huMMP-9
Description: Ki,app, enzyme inhibition assay (fluorogenic peptide substrate), IgG; told as Ki of 0.92±0.04 nM in Example 2. As for the experimental part: (§1) Materials: [0495] Substrate: Mca-KPLGL-Dap(Dnp)-AR-NH₂ (M-2350) from BACHEM (521575). A 10 mM stock solution was prepared in DMSO. [0496] Enzymes: [0497] Human MMP-9 catalytic domain (BIOMOL, SE-244). Enzyme concentration was measured by titration with TIMP-1 (2522-104) [0498] Mouse MMP-9 (R&D, 909-MM), APMA-activated. [0499] M0237-D02 hIgG1: 2517-014. Dialysed against TCN. [0500] TCNB: 50 mM Tris/HCl, 10 mM CaCl₂, 150 mM NaC, […] Brij 35, pH 7.5. [0501] -96-well black plates from Perkin Elmer (6005270) [0502] Spectramax M2e to measure fluorescence emission of the substrate upon hydrolysis (temperature control set at 30° C.; λexc=328 nm and λₑₘ=393 nm)
(§2) The enzyme (final concentration=0.23 and 0.17 nM for the human and mouse MMP-9, respectively) was preincubated with various concentrations (0-50 nM) of M0237-D02 for 1 h at 30° C. The substrate was then added to a final concentration ranging from 5 to 40 μM and initial rates were recorded.

Test [2] addresses T3, Mouse MMP-9 (R&D, 909-MM), APMA-activated (mouse, UniProt P41245 108-730, limits assumed).
T3 construct: also called mMMP-9; mouse MMP-9 (R&D Systems #909-MM-010)
Description: Ki,app, enzyme inhibition assay (fluorogenic peptide substrate), IgG; told as Ki of 1.3±0.1 nM in Example 2. As for the experimental part:
as §1, §2

Test [3] deals with T4, human MMP-2 (Biomol #SE-237) (human, UniProt P08253 110-452, limits assumed).
T4 construct: also called hMMP-2
The test can be described thus: Ki,app, enzyme inhibition assay (fluorogenic peptide substrate), IgG.

In test [4] the target is T2, Human MMP-9 catalytic domain (BIOMOL, …). The test can be described thus: plot of kobs against antibody concentration, inhibition progress curves.

T2 sequence (P14780 107-457 limits assumed): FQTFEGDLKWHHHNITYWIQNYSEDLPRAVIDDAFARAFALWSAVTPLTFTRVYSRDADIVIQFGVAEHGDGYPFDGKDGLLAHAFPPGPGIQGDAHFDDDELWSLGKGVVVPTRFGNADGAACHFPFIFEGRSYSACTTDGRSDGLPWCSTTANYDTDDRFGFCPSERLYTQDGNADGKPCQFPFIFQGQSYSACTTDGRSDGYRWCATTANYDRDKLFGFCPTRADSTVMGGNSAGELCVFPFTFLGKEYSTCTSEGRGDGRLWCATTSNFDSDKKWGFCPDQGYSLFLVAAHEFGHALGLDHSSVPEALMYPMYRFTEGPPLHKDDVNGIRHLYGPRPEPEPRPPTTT
T3 sequence (P41245 108-730 limits assumed): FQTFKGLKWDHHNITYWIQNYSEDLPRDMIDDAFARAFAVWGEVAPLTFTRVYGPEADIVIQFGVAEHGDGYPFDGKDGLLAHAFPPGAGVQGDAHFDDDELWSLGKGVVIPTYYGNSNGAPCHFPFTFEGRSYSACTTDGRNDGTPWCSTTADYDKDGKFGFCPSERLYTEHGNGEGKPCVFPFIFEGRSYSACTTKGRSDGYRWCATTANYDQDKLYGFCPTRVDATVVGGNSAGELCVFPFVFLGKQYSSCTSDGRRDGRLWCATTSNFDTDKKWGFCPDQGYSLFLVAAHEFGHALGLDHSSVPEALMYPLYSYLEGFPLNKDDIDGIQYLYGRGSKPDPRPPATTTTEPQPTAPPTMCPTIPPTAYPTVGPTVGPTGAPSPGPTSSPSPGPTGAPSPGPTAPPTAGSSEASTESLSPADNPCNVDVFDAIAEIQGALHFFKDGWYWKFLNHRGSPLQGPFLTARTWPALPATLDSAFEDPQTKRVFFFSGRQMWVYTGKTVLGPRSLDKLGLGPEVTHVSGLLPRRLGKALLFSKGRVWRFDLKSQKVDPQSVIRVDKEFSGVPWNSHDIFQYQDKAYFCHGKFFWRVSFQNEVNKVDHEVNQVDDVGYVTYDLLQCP
T4 sequence (P08253 110-452 limits assumed): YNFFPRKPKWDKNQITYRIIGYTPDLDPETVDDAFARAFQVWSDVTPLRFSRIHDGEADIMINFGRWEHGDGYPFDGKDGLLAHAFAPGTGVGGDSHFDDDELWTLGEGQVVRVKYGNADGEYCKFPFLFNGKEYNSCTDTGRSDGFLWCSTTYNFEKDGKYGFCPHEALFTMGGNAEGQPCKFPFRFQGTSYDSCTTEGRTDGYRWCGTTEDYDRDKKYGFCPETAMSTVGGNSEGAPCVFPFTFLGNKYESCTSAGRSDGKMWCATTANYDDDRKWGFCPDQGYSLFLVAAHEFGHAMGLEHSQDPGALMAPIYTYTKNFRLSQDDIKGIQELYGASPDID
T1 sequence (P14780 107-457 limits assumed, chain 1 of 2): as the sequence (P14780 107-457 limits assumed) above
T1 sequence (P01033 24-207 limits assumed, chain 2 of 2): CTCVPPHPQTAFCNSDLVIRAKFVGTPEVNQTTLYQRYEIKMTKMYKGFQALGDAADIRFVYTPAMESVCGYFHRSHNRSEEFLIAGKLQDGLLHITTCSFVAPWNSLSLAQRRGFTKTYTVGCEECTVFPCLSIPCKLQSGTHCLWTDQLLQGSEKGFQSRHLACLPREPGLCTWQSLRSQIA

B1: 539A-M0237-D02 hIgG1 (antibody, V domains shown)
VH: EVQLLESGGGLVQPGGSLRLSCAASGFTFSQYPMWWVRQAPGKGLEWVSYIVPSGGRTYYADSVKGRFTISRDNSKNTLYLQMNSLRAEDTAVYYCAKDRAYGDYVGWNGFDYWGQGTLVTVSS
VL: DIQMTQSPATLSLSPGERATLSCRASQSISSFLAWYQQKPGQAPRLLIYDASYRATGIPARFSGSGSGTDFTLTISSLEPEDYAVYYCQQRGNWPITFGQGTRLEIK
notes: Tested as human IgG1 (parental); also called M237-D02; DL8
With B1, the binding result with h-MMP-9/h-TIMP-1 complex is recorded as “no binding”. Moreover, the Ki in test [1] is 0.92 nM; in test [2], 1.3 nM; in test [3], 17 nM. The molecule further showed an off-rate constant (koff) in test [4] of roughly 0.0004 s⁻¹. In addition, the association rate constant (kon) in test [4] was roughly 70000 M⁻¹ s⁻¹.
